Earlier results as cited in publication PMC8865373.
Read-outs that look alike come from different tables or passages of the source.

Columns and labels:
CBP TAZ2 TAZ2 [1] = target: CBP TAZ2 TAZ2 (UniProt P45481)
CBP TAZ2 TAZ2 [2] = target: CBP TAZ2 TAZ2 (UniProt P45481); remark: listed apart in the source

Chain of CBP TAZ2 TAZ2 (P45481 1764-1855): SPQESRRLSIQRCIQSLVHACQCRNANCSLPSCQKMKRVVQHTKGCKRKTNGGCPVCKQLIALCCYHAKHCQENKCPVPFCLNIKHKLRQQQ
Chain of HPV E7 (P03129 whole entry): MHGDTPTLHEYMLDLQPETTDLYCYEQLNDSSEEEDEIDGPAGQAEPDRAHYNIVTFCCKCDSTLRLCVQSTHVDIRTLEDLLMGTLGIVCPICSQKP
Chain of p53 AD1 AD1 (P04637 13-37): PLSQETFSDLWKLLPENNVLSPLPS

| Substance | Kd (CBP TAZ2 TAZ2 [1]) [µM] | Kd (CBP TAZ2 TAZ2 [2]) [µM] |
| --- | --- | --- |
| p53 AD1 AD1 (from UniProt P04637) | 24 | – |
| HPV E7 (from UniProt P03129) | – | 0.022 |
